Data reported in patent publication US9260500B2, “Peptide and use thereof” (Takeda Pharmaceutical Company Limited, priority 2009, dated 2016).
Starred links: 1 amine or outer side, 2 acyl side, 3 side chain; linkers in the order of their positions; H or OH if unused. Non-standard residues stand in square brackets, D forms with d. *: point of attachment. Phe(4-F) = N[C@@H](Cc1ccc(F)cc1)C(=O)O; Arg(Me) = CNC(=N)NCCC[C@H](N)C(=O)O; tBuAla = CC(C)(C)C[C@H](N)C(=O)O; 4Pal = N[C@@H](Cc1ccncc1)C(=O)O; dHyp = O=C(O)[C@H]1C[C@H](O)CN1; Cha = N[C@@H](CC1CCCCC1)C(=O)O; Suc = O=C(CCC(=O)[*:2])[*:1]; hSer = N[C@@H](CCO)C(=O)O; Isobutyryl = CC(C)C(=O)*; Iva = CC[C@](C)(N)C(=O)O; dNMeA = CN[C@H](C)C(=O)O; Nva = CCC[C@H](N)C(=O)O; Abu = CC[C@H](N)C(=O)O; Aib = CC(C)(N)C(=O)O; Bz = O=C(c1ccccc1)*; Ahx = NCCCCCC(=O)O

Key:
human Y2 receptor [1] = target: T1, human Y2 receptor (Homo sapiens, UniProt P49146); test: Receptor Binding Assay (RBA) for Human Y2, [125I]-PYY displacement on hY2R/CHO membrane fraction; settings: IC50 of test compound/IC50 of PYY(3-36) (PYY(3-36) taken as 1)
T1 construct: expressed in transfected cells; membrane fraction
T1 sequence (P49146 1-381): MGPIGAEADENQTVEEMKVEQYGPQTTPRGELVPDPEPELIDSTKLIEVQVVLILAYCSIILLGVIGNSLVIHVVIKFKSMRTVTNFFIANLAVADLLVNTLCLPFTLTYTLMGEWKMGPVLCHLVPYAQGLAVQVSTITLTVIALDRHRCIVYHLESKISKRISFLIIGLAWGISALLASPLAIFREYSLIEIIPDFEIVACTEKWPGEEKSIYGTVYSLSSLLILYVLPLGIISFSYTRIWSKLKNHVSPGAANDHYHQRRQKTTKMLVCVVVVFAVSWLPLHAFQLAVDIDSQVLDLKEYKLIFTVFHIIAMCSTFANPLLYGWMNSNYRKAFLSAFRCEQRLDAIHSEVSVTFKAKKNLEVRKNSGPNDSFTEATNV
Outline: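 hY2R stably expressed in CHO/dhfr− cells; membrane fraction prepared from cells disrupted in 10 mM NaHCO3, 5 mM EDTA buffer with protease inhibitors. Binding read as displacement of [125I]-PYY.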

human Y2 receptor [2] = target: T1, human Y2 receptor; test: Human Y2 Receptor G Protein Binding Assay (GBA), [35S]GTPγS; assay type: biochemical; settings: EC50 of test compound/EC50 of PYY(3-36) (PYY3-36 taken as 1), hY2R/CHO membrane fraction
Outline: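 Agonism measured as [35S]GTPγS binding, read by GF/C filtration and scintillation counting after 120 min at room temperature, using human Y2 membranes at 1 μg protein/mL in pH 7.4 Tris/MgCl2/NaCl/GDP buffer. Compound serially diluted 100 μM–1 nM; EC50 normalized to PYY(3-36) (ratio = compound/PYY).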

| Substance | RBA IC50 Ratio (human Y2 receptor [1]) | GBA EC50 Ratio (human Y2 receptor [2]) |
| --- | --- | --- |
| Ac-[D-Pro24, Iva25, Cha27,36, Aib28,31, Lys30]-PYY(23-36) (Ac-S[dP][Iva]H[Cha][Aib]NK[Aib]TRQR[Cha]-NH2; SMILES CC[C@](C)(NC(=O)[C@H]1CCCN1C(=O)[C@H](CO)NC(C)=O)C(=O)N[C@@H](Cc1c[nH]cn1)C(=O)N[C@@H](CC1CCCCC1)C(=O)NC(C)(C)C(=O)N[C@@H](CC(N)=O)C(=O)N[C@@H](CCCCN)C(=O)NC(C)(C)C(=O)N[C@H](C(=O)N[C@@H](CCCNC(=N)N)C(=O)N[C@@H](CCC(N)=O)C(=O)N[C@@H](CCCNC(=N)N)C(=O)N[C@@H](CC1CCCCC1)C(N)=O)[C@@H](C)O) [compound No. 239] | 8.8 | 5.2 |
| Ac-[D-Pro24, Pya(4)26, Cha27,36, Iva28,31, Lys30]-PYY(23-36) (Ac-S[dP]R[4Pal][Cha][Iva]NK[Iva]TRQR[Cha]-NH2; SMILES CC[C@](C)(NC(=O)[C@H](CC1CCCCC1)NC(=O)[C@H](Cc1ccncc1)NC(=O)[C@H](CCCNC(=N)N)NC(=O)[C@H]1CCCN1C(=O)[C@H](CO)NC(C)=O)C(=O)N[C@@H](CC(N)=O)C(=O)N[C@@H](CCCCN)C(=O)N[C@@](C)(CC)C(=O)N[C@H](C(=O)N[C@@H](CCCNC(=N)N)C(=O)N[C@@H](CCC(N)=O)C(=O)N[C@@H](CCCNC(=N)N)C(=O)N[C@@H](CC1CCCCC1)C(N)=O)[C@@H](C)O) [compound No. 246] | 0.31 | 1 |
| 3-Carboxypropionyl-[Acp22, D-Pro24, Cha27,36, Leu(Me)28, Lys30, Aib31]-PYY(22-36) (Suc-[Ahx]S[dP]RH[Cha][tBuAla]NK[Aib]TRQR[Cha]-NH2; SMILES C[C@@H](O)[C@H](NC(=O)C(C)(C)NC(=O)[C@H](CCCCN)NC(=O)[C@H](CC(N)=O)NC(=O)[C@H](CC(C)(C)C)NC(=O)[C@H](CC1CCCCC1)NC(=O)[C@H](Cc1c[nH]cn1)NC(=O)[C@H](CCCNC(=N)N)NC(=O)[C@H]1CCCN1C(=O)[C@H](CO)NC(=O)CCCCCNC(=O)CCC(=O)O)C(=O)N[C@@H](CCCNC(=N)N)C(=O)N[C@@H](CCC(N)=O)C(=O)N[C@@H](CCCNC(=N)N)C(=O)N[C@@H](CC1CCCCC1)C(N)=O) [compound No. 185] | 1.7 | 1.2 |
| Isobutanoyl-[Asp23, D-Hyp24, Cha27,28,36, Aib31]-PYY(23-36) (Isobutyryl-D[dHyp]RH[Cha][Cha]NL[Aib]TRQR[Cha]-NH2; SMILES CC(C)C[C@H](NC(=O)[C@H](CC(N)=O)NC(=O)[C@H](CC1CCCCC1)NC(=O)[C@H](CC1CCCCC1)NC(=O)[C@H](Cc1c[nH]cn1)NC(=O)[C@H](CCCNC(=N)N)NC(=O)[C@H]1C[C@H](O)CN1C(=O)[C@H](CC(=O)O)NC(=O)C(C)C)C(=O)NC(C)(C)C(=O)N[C@H](C(=O)N[C@@H](CCCNC(=N)N)C(=O)N[C@@H](CCC(N)=O)C(=O)N[C@@H](CCCNC(=N)N)C(=O)N[C@@H](CC1CCCCC1)C(N)=O)[C@@H](C)O) [compound No. 127] | 2.6 | 3.1 |
| Ac-[D-Pro24, Iva25, Pya(4)26, Cha27,36, Nva28, Aib31, Lys30]-PYY(23-36) (Ac-S[dP][Iva][4Pal][Cha][Nva]NK[Aib]TRQR[Cha]-NH2; SMILES CCC[C@H](NC(=O)[C@H](CC1CCCCC1)NC(=O)[C@H](Cc1ccncc1)NC(=O)[C@](C)(CC)NC(=O)[C@H]1CCCN1C(=O)[C@H](CO)NC(C)=O)C(=O)N[C@@H](CC(N)=O)C(=O)N[C@@H](CCCCN)C(=O)NC(C)(C)C(=O)N[C@H](C(=O)N[C@@H](CCCNC(=N)N)C(=O)N[C@@H](CCC(N)=O)C(=O)N[C@@H](CCCNC(=N)N)C(=O)N[C@@H](CC1CCCCC1)C(N)=O)[C@@H](C)O) [compound No. 352] | 1.6 | 1.3 |
| Ac-[D-MeAla24, Cha27,28,36, Aib31]-PYY(23-36) (Ac-S[dNMeA]RH[Cha][Cha]NL[Aib]TRQR[Cha]-NH2; SMILES CC(=O)N[C@@H](CO)C(=O)N(C)[C@H](C)C(=O)N[C@@H](CCCNC(=N)N)C(=O)N[C@@H](Cc1c[nH]cn1)C(=O)N[C@@H](CC1CCCCC1)C(=O)N[C@@H](CC1CCCCC1)C(=O)N[C@@H](CC(N)=O)C(=O)N[C@@H](CC(C)C)C(=O)NC(C)(C)C(=O)N[C@H](C(=O)N[C@@H](CCCNC(=N)N)C(=O)N[C@@H](CCC(N)=O)C(=O)N[C@@H](CCCNC(=N)N)C(=O)N[C@@H](CC1CCCCC1)C(N)=O)[C@@H](C)O) [compound No. 110] | 3.4 | 2.2 |
| Benzoyl-[Nva27, Cha28,36, Aib31]-PYY(25-36) (Bz-RH[Nva][Cha]NL[Aib]TRQR[Cha]-NH2; SMILES CCC[C@H](NC(=O)[C@H](Cc1c[nH]cn1)NC(=O)[C@H](CCCNC(=N)N)NC(=O)c1ccccc1)C(=O)N[C@@H](CC1CCCCC1)C(=O)N[C@@H](CC(N)=O)C(=O)N[C@@H](CC(C)C)C(=O)NC(C)(C)C(=O)N[C@H](C(=O)N[C@@H](CCCNC(=N)N)C(=O)N[C@@H](CCC(N)=O)C(=O)N[C@@H](CCCNC(=N)N)C(=O)N[C@@H](CC1CCCCC1)C(N)=O)[C@@H](C)O) [compound No. 103] | 13 | 8.6 |
| Ac-[D-Pro24, Pya(4)26, Cha27,36, Aib28,31, Hse30]-PYY(23-36) (Ac-S[dP]R[4Pal][Cha][Aib]N[hSer][Aib]TRQR[Cha]-NH2; SMILES CC(=O)N[C@@H](CO)C(=O)N1CCC[C@@H]1C(=O)N[C@@H](CCCNC(=N)N)C(=O)N[C@@H](Cc1ccncc1)C(=O)N[C@@H](CC1CCCCC1)C(=O)NC(C)(C)C(=O)N[C@@H](CC(N)=O)C(=O)N[C@@H](CCO)C(=O)NC(C)(C)C(=O)N[C@H](C(=O)N[C@@H](CCCNC(=N)N)C(=O)N[C@@H](CCC(N)=O)C(=O)N[C@@H](CCCNC(=N)N)C(=O)N[C@@H](CC1CCCCC1)C(N)=O)[C@@H](C)O) [compound No. 265] | 5.8 | 5.7 |
| Isobutanoyl-[Abu26, Cha27,36, Gln28, Aib31]-PYY(25-36) (Isobutyryl-R[Abu][Cha]QNL[Aib]TRQR[Cha]-NH2; SMILES CC[C@H](NC(=O)[C@H](CCCNC(=N)N)NC(=O)C(C)C)C(=O)N[C@@H](CC1CCCCC1)C(=O)N[C@@H](CCC(N)=O)C(=O)N[C@@H](CC(N)=O)C(=O)N[C@@H](CC(C)C)C(=O)NC(C)(C)C(=O)N[C@H](C(=O)N[C@@H](CCCNC(=N)N)C(=O)N[C@@H](CCC(N)=O)C(=O)N[C@@H](CCCNC(=N)N)C(=O)N[C@@H](CC1CCCCC1)C(N)=O)[C@@H](C)O) [compound No. 100] | 45 | 30 |
| Ac-[D-Pro24, Lys(Ac)25, Pya(4)26, Cha27,36, Aib28,31, Lys30]-PYY(23-36) (Ac-S[dP]K(Ac)[4Pal][Cha][Aib]NK[Aib]TRQR[Cha]-NH2; SMILES CC(=O)NCCCC[C@H](NC(=O)[C@H]1CCCN1C(=O)[C@H](CO)NC(C)=O)C(=O)N[C@@H](Cc1ccncc1)C(=O)N[C@@H](CC1CCCCC1)C(=O)NC(C)(C)C(=O)N[C@@H](CC(N)=O)C(=O)N[C@@H](CCCCN)C(=O)NC(C)(C)C(=O)N[C@H](C(=O)N[C@@H](CCCNC(=N)N)C(=O)N[C@@H](CCC(N)=O)C(=O)N[C@@H](CCCNC(=N)N)C(=O)N[C@@H](CC1CCCCC1)C(N)=O)[C@@H](C)O) [compound No. 280] | 6.6 | 4.2 |
| Ac-[D-Pro24, Pya(4)26, Phe(4F)27, Aib28,31, Lys30, Cha36]-PYY(23-36) (Ac-S[dP]R[4Pal][Phe(4-F)][Aib]NK[Aib]TRQR[Cha]-NH2; SMILES CC(=O)N[C@@H](CO)C(=O)N1CCC[C@@H]1C(=O)N[C@@H](CCCNC(=N)N)C(=O)N[C@@H](Cc1ccncc1)C(=O)N[C@@H](Cc1ccc(F)cc1)C(=O)NC(C)(C)C(=O)N[C@@H](CC(N)=O)C(=O)N[C@@H](CCCCN)C(=O)NC(C)(C)C(=O)N[C@H](C(=O)N[C@@H](CCCNC(=N)N)C(=O)N[C@@H](CCC(N)=O)C(=O)N[C@@H](CCCNC(=N)N)C(=O)N[C@@H](CC1CCCCC1)C(N)=O)[C@@H](C)O) [compound No. 305] | 10 | 3.9 |
| Ac-[Glu23, D-Pro24, Pya(4)26, Cha27,36, Aib28,31, Lys30]-PYY(22-36) (Ac-AE[dP]R[4Pal][Cha][Aib]NK[Aib]TRQR[Cha]-NH2; SMILES CC(=O)N[C@@H](C)C(=O)N[C@@H](CCC(=O)O)C(=O)N1CCC[C@@H]1C(=O)N[C@@H](CCCNC(=N)N)C(=O)N[C@@H](Cc1ccncc1)C(=O)N[C@@H](CC1CCCCC1)C(=O)NC(C)(C)C(=O)N[C@@H](CC(N)=O)C(=O)N[C@@H](CCCCN)C(=O)NC(C)(C)C(=O)N[C@H](C(=O)N[C@@H](CCCNC(=N)N)C(=O)N[C@@H](CCC(N)=O)C(=O)N[C@@H](CCCNC(=N)N)C(=O)N[C@@H](CC1CCCCC1)C(N)=O)[C@@H](C)O) [compound No. 220] | 5.3 | 3.5 |
| Benzoyl-[Cha27,36, Ile28, Arg(Me)31]-PYY(25-36) (Bz-RH[Cha]INL[Arg(Me)]TRQR[Cha]-NH2) [compound No. 70] | 18 | 15 |
